Data: patent US20230357429A1 (JANUX THERAPEUTICS, published 2023)
Where no end group is shown, it is not given here.

T1: Peptide-70 (cysteine pairing not given here; also: biotinylated, site not given here)
T1 construct: mask peptide for the CD3 scFv
T1 peptide: YLCGPDGDETLACY

T2: Peptide-76 (cysteine pairing not given here; also: biotinylated, site not given here)
T2 construct: mask peptide for the CD3 scFv
T2 peptide: YLCGPDADETLACY

T3: Peptide-77 (cysteine pairing not given here; also: biotinylated, site not given here)
T3 construct: mask peptide for the CD3 scFv
T3 peptide: YLCGPDTDETLACY

B1: TCE-37 (anti-CD3 scFv F104A; anti-TROP2 F108A) (bispecific antibody)
light: DIQLTQSPSSLSASVGDRVSITCKASQDVSIAVAWYQQKPGKAPKLLIYSASYRYTGVPDRFSGSGSGTDFTLTISSLQPEDFAVYYCQQHYITPLTFGAGTKVEIKRTVAAPSVFIFPPSDEQLKSGTASVVCLLNNFYPREAKVQWKVDNALQSGNSQESVTEQDSKDSTYSLSSTLTLSKADYEKHKVYACEVTHQGLSSPVTKSFNRGEC
heavy: not shown
notes: scFv on the Fab heavy chain
B2: TCE-7 (anti-CD3 scFv wt; anti-TROP2 F108A) (bispecific antibody)
light: DIQLTQSPSSLSASVGDRVSITCKASQDVSIAVAWYQQKPGKAPKLLIYSASYRYTGVPDRFSGSGSGTDFTLTISSLQPEDFAVYYCQQHYITPLTFGAGTKVEIKRTVAAPSVFIFPPSDEQLKSGTASVVCLLNNFYPREAKVQWKVDNALQSGNSQESVTEQDSKDSTYSLSSTLTLSKADYEKHKVYACEVTHQGLSSPVTKSFNRGEC
heavy: not shown
notes: scFv on the Fab heavy chain

Assays:
TBD-1 wt = molecular target: T4, TBD-1 wt; assay: competition ELISA: peptide titrated and pre-incubated with a constant concentration of TBD-1, then added to plate-bound biotinylated TROP2; blocked ligand TROP2 (2.m7)
T4 construct: Fab; the heavy chain entry is VH-CH1; also called wild-type anti-TROP2 Fab (hRS7); TROP2 Fab

[1] = molecular target: T5, TCE-11 (anti-CD3 scFv H101A; anti-TROP2 wt); assay: competition ELISA, TCE on captured CD3
T5 construct: scFv on the Fab heavy chain; also called TCE-11 (H101A)

[2] = molecular target: T6, TCE-14 (anti-CD3 scFv F104A; anti-TROP2 wt); assay: competition ELISA, TCE on captured CD3
T6 construct: scFv on the Fab heavy chain; also called TCE-14 (F104A)

[3] = molecular target: T7, TCE-20 (anti-CD3 scFv S110A; anti-TROP2 wt); assay: competition ELISA, TCE on captured CD3
T7 construct: scFv on the Fab heavy chain; also called TCE-20 (S110A)

[4] = molecular target: T8, TCE-26 (anti-CD3 scFv W233A; anti-TROP2 HC wt); assay: competition ELISA, TCE on captured CD3
T8 construct: scFv on the Fab heavy chain; also called TCE-26 (W233A)

[5] = molecular target: T9, TCE-31 (anti-CD3 scFv W238A; anti-TROP2 wt); assay: competition ELISA, TCE on captured CD3
T9 construct: scFv on the Fab heavy chain; also called TCE-31 (W238A)

[6] = molecular target: T10, TCE-33 (anti-CD3 scFv F240A; anti-TROP2 wt); assay: competition ELISA, TCE on captured CD3
T10 construct: scFv on the Fab heavy chain; also called TCE-33 (F240A)

[7] = molecular target: T11, TCE-1 (anti-CD3 scFv wt; anti-TROP2 Fab wt); assay: competition ELISA: peptide titrated and pre-incubated with a constant concentration of TCE-1, binding of TCE-1 to plate-bound biotinylated CD3 detected
T11 construct: anti-CD3 scFv fused to the N-terminus of the anti-TROP2 Fab heavy chain; also called TCE-1 (wt)

Peptide-70 = molecular target: T1, Peptide-70; assay: ELISA, TCE on captured biotin-peptide
Peptide-76 = molecular target: T2, Peptide-76; assay: ELISA, TCE on captured biotin-peptide
Peptide-77 = molecular target: T3, Peptide-77; assay: ELISA, TCE on captured biotin-peptide
[8] = molecular target: T12, TCE-13 (anti-CD3 scFv N103A; anti-TROP2 wt); assay: competition ELISA, TCE on captured CD3
T12 construct: scFv on the Fab heavy chain; also called TCE-13 (N103A)

[9] = molecular target: T13, TCE-22 (anti-CD3 scFv W112A; anti-TROP2 wt); assay: competition ELISA, TCE on captured CD3
T13 construct: scFv on the Fab heavy chain; also called TCE-22 (W112A)

[10] = molecular target: T14, TCE-10 (anti-CD3 scFv R100A; anti-TROP2 wt); assay: competition ELISA, TCE on captured CD3
T14 construct: scFv on the Fab heavy chain; also called TCE-10 (R100A)

Binder | binding result (TBD-1 wt) | IC50 [2] [µM] | IC50 [3] [µM] | IC50 [4] [µM] | IC50 [5] [µM] | IC50 [6] [µM] | binding result [7] | further results
VDFCYQYGWPICSR [Peptide-23] | binds | – | – | – | – | – | – | –
QGCGTIADPEPHCW (cysteine pairing not given here; also: biotinylated, site not given here, mask peptide for the CD3 scFv) [Peptide-65] | – | 6.46 | 6.54 | 2.64 | 17.7 | 0.62 | – | IC50 [1]: 85 µM; IC50 (read off the curve) [7]: ~2 µM
PDFCQLYNWPVCAG [Peptide-19] | binds | – | – | – | – | – | – | –
B1 | – | – | – | – | – | – | – | EC50 (Peptide-70): 0.00034 µM; EC50 (Peptide-76): 0.00144 µM; EC50 (Peptide-77): 0.00921 µM
B2 | – | – | – | – | – | – | – | EC50 (Peptide-70): 0.0004 µM; EC50 (Peptide-76): 0.00456 µM; EC50 (Peptide-77): 0.0632 µM
SECLVDLQSDPCYW (cysteine pairing not given here; also: biotinylated, site not given here, mask peptide for the CD3 scFv) [Peptide-69] | – | 11.8 | 4.24 | 2.02 | 6.57 | 0.81 | binds | IC50 [8]: 50.5 µM; IC50 [9]: 56.8 µM
DWCWYSPDNDGLCD (cysteine pairing not given here; also: biotinylated, site not given here, mask peptide for the CD3 scFv) [Peptide-68] | – | 1.08 | 0.4 | 43 | 9.47 | 7.35 | binds | IC50 [10]: 88.9 µM
VDCGPDGDESILCY (cysteine pairing not given here; also: biotinylated, site not given here, mask peptide for the CD3 scFv) [Peptide-71] | – | – | 11.8 | 75.4 | 51 | 4.83 | binds | IC50 [10]: 1.35 µM; IC50 [1]: 3.72 µM; IC50 [8]: 5.08 µM; IC50 [9]: 13.8 µM
VDFCTIYKWPVCEG [Peptide-22] | binds | – | – | – | – | – | – | –
IDFCSLYQWPVCGT [Peptide-21] | binds | – | – | – | – | – | – | –
